This assay addresses Purified recombinant HIV gp120, biotinylated (HIV) (UniProt P04578). As to the kind of experiment: SPR.

“soluble recombinant human DC-SIGN extracellular domain (from UniProt Q9NNX6 59-404) (domain or fragment)”: the percent less binding in 20 mM glucose than in 5 mM glucose came out at 33%.

The values are drawn from PMC3088832.
